Data on five molecules can be found in patent US9809808B2, “Antimicrobial agents” (KATHOLIEKE UNIVERSITEIT LEUVEN K.U. LEUVEN R&D, priority 2008, dated 2017).

The subject of assay [1] is Escherichia coli WK6. The assay is classed as cell-based. As to conditions: 0.5 mM EDTA, no endolysin, 30 minutes.
Assay [2] relates to P. aeruginosa Br667. Briefly: Antibacterial activity of PSP3gp10 and PKPSP3gp10 with and without EDTA (30 minutes, colony count). The assay is classed as cell-based, Pseudomonas aeruginosa.
Assay [3] relates to Escherichia coli WK6. The experiment in a line: Antibacterial activity of P2gp09 and PKP2gp09 with and without EDTA (30 minutes, colony count). The assay is classed as cell-based. The note with it: for relative inactivation in logarithmic units (log10N0/Ni): 30 minutes. The procedure:
To determine the anti-Gram-negative spectrum of the PK2gp09 endolysin according to SEQ ID NO: 57, a combination of 1.315 μM PK2gp09 endolysin and 0,5 mM EDTA was tested on the clinical P. aeruginosa strains PAO1p and Br667 and on Escherichia coli WK6 (see Table 9). Exponential growing bacterial cells (OD600 nm of 0.6) were 100-fold diluted to a final density of about 10^6/ml of each strain was incubated for 30 minutes at room temperature without shaking with unmodified endolysin P2gp09 (SEQ ID NO: 9) and modified endolysin PKP2gp09 (SEQ ID NO: 57) each in combination without and with 0.5 mM EDTA. […] As a control each strain was also incubated for 30 minutes with 0.5 mM EDTA (in same buffer as outlined above) but no endolysin. After incubation cell suspensions were diluted three times (respectively 10^5-10^4-10^3 cells/ml) and 100 μl of each dilution was plated out on LB-medium.

For assay [4], the system named is P. putida G1. Described as above. The format is cell-based, Pseudomonas putida. The note with it: for relative inactivation in logarithmic units (log10N0/Ni): 30 minutes.
Assay [5] relates to P. aeruginosa Br667. The description is as above. The note with it: for relative inactivation in logarithmic units (log10N0/Ni): 30 minutes. The format is cell-based, Pseudomonas aeruginosa.
Assay [6] deals with Escherichia coli WK6. Briefly: Antibacterial activity of PSP3gp10 and PKPSP3gp10 with and without EDTA (30 minutes, colony count). The assay is classed as cell-based. The procedure:
(§1) To determine the anti-Gram-negative spectrum of the PKPSP3gp10 endolysin according to SEQ ID NO: 53, a combination of 1.315 μM PKPSP3gp10 endolysin and 0.5 mM EDTA was tested on the clinical P. aeruginosa strains PAO1p and Br667, Escherichia coli WK6, and Salmonella typhimurium (see Table 5). Exponential growing bacterial cells (OD600 nm of 0.6) were 100-fold diluted to a final density of about 10^6/ml of each strain were incubated for 30 minutes at room temperature without shaking with unmodified endolysin […] (SEQ ID NO: 8) and modified endolysin PKPSP3gp10 (SEQ ID NO: 53) each in combination without and with 0.5 mM EDTA. […] As a control each strain was also incubated for 30 minutes with 0.5 mM EDTA (in same buffer as outlined above) but no endolysin.
(§2) After incubation cell suspensions were diluted three times (respectively 10^5-10^4-10^3 cells/ml) and 100 μl of each dilution was plated out on LB-medium.

The subject of assay [7] is Salmonella typhimurium LT2. The description is as above. The assay is classed as cell-based. As to the method: as §1, §2
The test system of assay [8] is Salmonella typhimurium LT2. The assay is classed as cell-based. As to conditions: 0.5 mM EDTA, no endolysin, 30 minutes.
The subject of assay [9] is Pseudomonas aeruginosa PAO1p cells. Briefly: Effect of different EDTA and endolysin concentrations on antibacterial activity of OBPgpLYS and PKOBPgpLYS. The format is cell-based. As to conditions: no endolysin. As to the method:
To determine the influence of EDTA on the antibacterial activity of unmodified and modified endolysins the antibacterial activity of the unmodified OBPgpLYS endolysin (SEQ ID NO: 7) and the PKOBPgpLYS endolysin (SEQ ID NO: 61) was tested on Pseudomonas aeruginosa PAO1p cells ([…] et al. J Clin Microbiol., 41(3):1192-1202 (2003)) using different concentrations of EDTA and endolysins. Exponential growing bacterial cells (OD600 nm of 0.6) were 100-fold diluted to a final density of about 10^6/ml and incubated for 30 minutes at room temperature without shaking with unmodified endolysin OBPgpLYS (SEQ ID NO: 7) and modified endolysin PKOBPgpLYS (SEQ ID NO: 61). […] Thereby, the following different EDTA concentrations were used: 0 mM, 0.05 mM, 0.5 mM and 10 mM. […] After incubation cell suspensions were diluted three times (respectively 10^5-10^4-10^3 cells/ml) and 100 μl of each dilution was plated out on LB-medium. […] All samples were replicated in threefold. Averages+/-standard deviations are represented.

Assay [10] concerns P. putida G1. The format is cell-based, Pseudomonas putida. The note with it: 0.5 mM EDTA, no endolysin, 30 minutes.
Assay [11] has as its system P. aeruginosa Br667. The format is cell-based, Pseudomonas aeruginosa. The note with it: 0.5 mM EDTA, no endolysin, 30 minutes.
In assay [12] the test system is Burkholderia pseudomallei. The assay is classed as cell-based. As to conditions: for relative inactivation in logarithmic units (log10N0/Ni): 30 minutes.
[13] abbreviates: 1.315 μM endolysin + 0.5 mM EDTA.

Like-named read-outs stand apart in the source and are kept apart here.

In the case of `O=C([O-])CN(CCN(CC(=O)[O-])CC(=O)O)CC(=O)O.[Na+].[Na+]` [EDTA, reference compound], the “relative inactivation in logarithmic units (log10N0/Ni)” value (“relative inactivation … (log10N0/Ni)” for short) in the assay on Escherichia coli WK6 [1] is reported as 0.592 +/− 0.113 logarithmic units; with P. aeruginosa Br667 [2] (0.5 mM EDTA, no endolysin), 0.223 +/− 0.038 logarithmic units; with Escherichia coli WK6 [3] (0.5 mM EDTA, no endolysin), 0.153 logarithmic units; in the assay on P. putida G1 [4] (0.5 mM EDTA, no endolysin), 0.072 logarithmic units; with P. aeruginosa Br667 [5] (0.5 mM EDTA, no endolysin) it was 0.003 logarithmic units; with Escherichia coli WK6 [6] (0.5 mM EDTA, no endolysin), 0.393 +/− 0.035 logarithmic units. Moreover, the “relative inactivation … (log10N0/Ni)” value in [7] (0.5 mM EDTA, no endolysin) is 0.104 +/− 0.049 logarithmic units; in [8], 0.054 +/− 0.048 logarithmic units; in assay [9] (0.05 mM EDTA-Na2, 30 minutes), 0.028 +/− 0.008 log units; in assay [9] (0.5 mM EDTA-Na2, 30 minutes), 0.130 +/− 0.023 log units; in assay [9] (10 mM EDTA-Na2, 30 minutes), 1.827 +/− 0.052 log units; in the assay with P. putida G1 [10], 0.412 +/− 0.055 logarithmic units. For the same molecule, the “relative inactivation … (log10N0/Ni)” value in the assay with P. aeruginosa Br667 [11] was 0.031 +/− 0.023 logarithmic units.

B1: PKPSP3gp10: SEQ ID NO: 53: PSP3gp10 (SEQ ID NO: 8) with N-terminal peptide stretch KRKKRKKRK (SEQ ID NO: 11) (protein)
chain: MGSKRKKRKKRKPVINTHQNIAAFLDMLAYSEGTANHPLTKNRGYDVIVTGFDGSPEIFTDYSDHPFAHGRPPKVFNRRGEKSTASGRYQQLYIFWPHYKKQLALPDFSPLSQDKLAIQLIRERGAIDDIRAGRIERAVSRCRNIWASLPGAGYGQREHSLEKLVTVWRTAGGVMA
modifications: PKPSP3gp10
As to B1, the “relative inactivation … (log10N0/Ni)” value is on record as 0.891 +/− 0.118 logarithmic units in the assay on P. aeruginosa Br667 [2] (setting [13]); 0.353 +/− 0.086 logarithmic units with P. aeruginosa Br667 [2] (1.315 μM endolysin, no EDTA); 0.584 +/− 0.024 logarithmic units in the assay on Escherichia coli WK6 [6] (setting [13]); 0.205 +/− 0.088 logarithmic units with Escherichia coli WK6 [6] (1.315 μM endolysin, no EDTA); 0.850 +/− 0.032 logarithmic units in [7] (setting [13]); 0.327 +/− 0.057 logarithmic units in [7] (1.315 μM endolysin, no EDTA).

B2: PKP2gp09: SEQ ID NO: 57: P2gp09 (SEQ ID NO: 9) with N-terminal peptide stretch KRKKRKKRK (SEQ ID NO: 11) (protein)
chain: MGSKRKKRKKRKPVINTHQNIAAFLDMLAVSEGTANHPLTKNRGYDVIVTGLDGKPEIFTDYSDHPFAHGRPAKVFNRRGEKSTASGRYQQLYLFWPHYRKQLALPDFSPLSQDRLAIQLIRERGALDDIRAGRIERAISRCRNIWASLPGAGYGQREHSLEKLVTVWRTAGGVPA
modifications: PKP2gp09
As to B2, the “Δ, difference of activity between P2gp09 and PKP2gp09 samples” value with Escherichia coli WK6 [3] (1.315 μM + 0.5 mM EDTA) is 0.749 logarithmic units; with Escherichia coli WK6 [3] (1.315 μM, no EDTA), 0.353 logarithmic units; in assay [12] (1.315 μM + 0.5 mM EDTA), 0.365 logarithmic units; in assay [12] (1.315 μM, no EDTA), 0.394 logarithmic units; with P. putida G1 [4] (1.315 μM + 0.5 mM EDTA), more than 0.467 logarithmic units; in the assay with P. putida G1 [4] (1.315 μM, no EDTA), 0.595 logarithmic units. For the same molecule, the “Δ, difference of activity between P2gp09 and PKP2gp09 samples” value in the assay with P. aeruginosa Br667 [5] (1.315 μM + 0.5 mM EDTA) came out at 0.370 logarithmic units; in the assay on P. aeruginosa Br667 [5] (1.315 μM, no EDTA) it was 0.054 logarithmic units. For the same molecule, the “relative inactivation … (log10N0/Ni)” value with Escherichia coli WK6 [3] (setting [13]) is listed as 1.545 +/− 0.102 logarithmic units; with Escherichia coli WK6 [3] (1.315 μM endolysin, no EDTA) it was 1.104 +/− 0.039 logarithmic units; in assay [12] (setting [13]), 4.255 +/− 0.001 logarithmic units; in assay [12] (1.315 μM endolysin, no EDTA), 1.163 +/− 0.073 logarithmic units; in the assay on P. putida G1 [4] (setting [13]) it was >4,386 logarithmic units; in the assay on P. putida G1 [4] (1.315 μM endolysin, no EDTA), 1.014 +/− 0.139 logarithmic units. The “relative inactivation … (log10N0/Ni)” value in the assay with P. aeruginosa Br667 [5] (setting [13]) was 0.952 +/− 0.213 logarithmic units; in the assay on P. aeruginosa Br667 [5] (1.315 μM endolysin, no EDTA), 0.300 +/− 0.062 logarithmic units.

B3: PSP3gp10: SEQ ID NO: 8: unmodified globular endolysin with 165 amino acid residues originating from Salmonella typhimurium phage PSP3 (protein)
chain: MPVINTHQNIAAFLDMLAYSEGTANHPLTKNRGYDVIVTGFDGSPEIFTDYSDHPFAHGRPPKVFNRRGEKSTASGRYQQLYIFWPHYKKQLALPDFSPLSQDKLAIQLIRERGAIDDIRAGRIERAVSRCRNIWASLPGAGYGQREHSLEKLVTVWRTAGGVMA
modifications: PSP3gp10
With B3, the “relative inactivation … (log10N0/Ni)” value in the assay on P. aeruginosa Br667 [2] (setting [13]) is given as 0.571 +/− 0.035 logarithmic units; in the assay with P. aeruginosa Br667 [2] (1.315 μM endolysin, no EDTA), 0.375 +/− 0.056 logarithmic units; in the assay with Escherichia coli WK6 [6] (setting [13]) it was 0.387 +/− 0.014 logarithmic units; with Escherichia coli WK6 [6] (1.315 μM endolysin, no EDTA), 0.190 +/− 0.029 logarithmic units; in [7] (setting [13]), 0.690 +/− 0.036 logarithmic units; in assay [7] (1.315 μM endolysin, no EDTA) it was 0.283 +/− 0.038 logarithmic units.

B4: P2gp09: SEQ ID NO: 9: unmodified globular endolysin of 165 amino acid residues originating from Escherichia coli phage P2 (protein)
chain: MPVINTHQNIAAFLDMLAVSEGTANHPLTKNRGYDVIVTGLDGKPEIFTDYSDHPFAHGRPAKVFNRRGEKSTASGRYQQLYLFWPHYRKQLALPDFSPLSQDRLAIQLIRERGALDDIRAGRIERAISRCRNIWASLPGAGYGQREHSLEKLVTVWRTAGGVPA
modifications: P2gp09
As to B4, the “relative inactivation … (log10N0/Ni)” value with Escherichia coli WK6 [3] (setting [13]) was determined as 0.784 logarithmic units; in the assay with Escherichia coli WK6 [3] (1.315 μM endolysin, no EDTA), 0.751 logarithmic units; in assay [12] (setting [13]) it was 3.8909 logarithmic units; in assay [12] (1.315 μM endolysin, no EDTA) it was 0.769 logarithmic units; in the assay on P. putida G1 [4] (setting [13]) it was 3.919 logarithmic units; in the assay with P. putida G1 [4] (1.315 μM endolysin, no EDTA), 0.419 logarithmic units. The “relative inactivation … (log10N0/Ni)” value in the assay with P. aeruginosa Br667 [5] (setting [13]) is given as 0.582 logarithmic units; with P. aeruginosa Br667 [5] (1.315 μM endolysin, no EDTA), 0.246 logarithmic units.
